Data on two molecules can be found in PMC11251522, “Transcription factors ERα and Sox2 have differing multiphasic DNA- and RNA-binding mechanisms”.

Bounds are passed on as bounds.

The target of series [1] is T1, Sox2 HMG (human, UniProt P48431 40-123). The series is described as follows: fluorescence anisotropy; second (low-affinity) transition; FP at 4°C; ERα: 20 mM Tris pH 7.5 (at 25°C), 100 mM NaCl, 5% glycerol, 0.01% IGEPAL; Sox2: 10 mM Tris pH 7.5 (at 25°C), 135 mM KCl, 15 mM NaCl, 0.1 mg/mL BSA, 4% Ficoll, 0.05% NP-40, 1 mM DTT; SPR: ERα buffer, 25°C. Conditions: protein: recombinant; tags: N-terminal His8-MBP, 3C-cleaved; G-quadruplex. In general terms: Polarisation of emitted light reports the rotation of a fluorescent probe.

Series [2] has as its target T1, Sox2 HMG. The series is described as follows: fluorescence anisotropy; printed ≤1; first (high-affinity) transition, 44% of signal; FP at 4°C; ERα: 20 mM Tris pH 7.5 (at 25°C), 100 mM NaCl, 5% glycerol, 0.01% IGEPAL; Sox2: 10 mM Tris pH 7.5 (at 25°C), 135 mM KCl, 15 mM NaCl, 0.1 mg/mL BSA, 4% Ficoll, 0.05% NP-40, 1 mM DTT; SPR: ERα buffer, 25°C. To be noted: protein: recombinant; tags: N-terminal His8-MBP, 3C-cleaved; G-quadruplex.

Series [3] has as its target T1, Sox2 HMG. The series is described as follows: fluorescence anisotropy; apparent; Hill n 0.68; FP at 4°C; ERα: 20 mM Tris pH 7.5 (at 25°C), 100 mM NaCl, 5% glycerol, 0.01% IGEPAL; Sox2: 10 mM Tris pH 7.5 (at 25°C), 135 mM KCl, 15 mM NaCl, 0.1 mg/mL BSA, 4% Ficoll, 0.05% NP-40, 1 mM DTT; SPR: ERα buffer, 25°C. To be noted: protein: recombinant; tags: N-terminal His8-MBP, 3C-cleaved.

T1 sequence (P48431 40-123): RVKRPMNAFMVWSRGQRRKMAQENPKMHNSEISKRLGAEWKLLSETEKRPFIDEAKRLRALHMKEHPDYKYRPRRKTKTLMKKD

Turning to GGGAAGGGAAGGGAAGGGAA (structured_RNA) [G4 RNA (rG4), (G3A2)4], the Kd was 110 ± 32 nM with Sox2 HMG [1] and below 1 nM with Sox2 HMG [2].

Take AAAAAAAAAAAAAAAAAAAA (ssRNA) [poly(A) RNA (rA20)]: the Kd with Sox2 HMG [3] was 40 ± 13 nM.
